Experimental findings from the supplement of paper PMC10126150 are described below.

± gives the standard deviation of the averaged measurements.

The subject of the data set is ATP. Description: switch fluorescence ratio, 500 uM ATP over buffer (Cy3 cluster intensity, sum of 5 cycles each) (fold (ratio)); higher = stronger signal-on switching upon ATP binding; sequences stand for … in TCGTCGGCAGCGTCAGATGTGTATAAGAGACAGTTTTTTTTTTTTTTTTTTTTTTTTT…TC. To be noted: aptamer strand: ATP DNA aptamer (quencher-CACCTGGGGGAGTATTGCGGAGGAAGG + anchor), 100 nM annealed; ATP concentration: 500 uM. In a few lines: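 Exposure to 500 uM ATP lasted 15 min at 22 °C before imaging, and a selection-buffer image was taken beforehand, for Cy3-labelled switching-strand clusters on a modified Illumina MiSeq flow-cell annealed to 100 nM quencher-labelled ATP aptamer. Five buffer/ATP cycles were run with NaOH stripping and re-annealing between them. The fluorescence ratio per cluster is summed target-cycle over summed buffer-cycle Cy3 intensity, averaged per switch-domain sequence. Clusters outside 100-1000 RFU were excluded.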

In the case of TAAAAGATTT, the switch fluorescence ratio turned out to be 1.01 ± 0.037.
Consider ATTATGAATC, for which the switch fluorescence ratio came out at 1.02 ± 0.078.
Then CCTTGCGGGG, with 1.06 ± 0.012.
Consider CTCAAAAGTT, for which the switch fluorescence ratio is 1.01 ± 0.026.
In the case of CAGGGGGTTA it was 1.02 ± 0.026.
Take TTGGGGAGTA: the switch fluorescence ratio was 0.9929 ± 0.0089.
In the case of TGGGAAAAAG it was 0.972 ± 0.039; in that of GCATGTAGTG, 0.9794 ± 0.005; in that of CGTGCCATAG, 1 ± 0.015.
Turning to ATTGTGACTG, the switch fluorescence ratio is 0.975 ± 0.037.
Regarding CTTAATTTGA, the switch fluorescence ratio was determined as 0.984 ± 0.058.
Then TTATATTTGT, with 0.98 ± 0.02.
In the case of ATGTCCTAGC it was 1.03 ± 0.0038; in that of ATAGTATTAT, 0.968 ± 0.015; in that of GAACAAGGTG, 1.14 ± 0.22.
For the sequence GGTTTTGTAA, the switch fluorescence ratio was 0.982 ± 0.018.
In the case of GGGGAAGACT it was 0.989 ± 0.016.
In the case of AAAGAAGAGA it was 1.021 ± 0.0069.
Then CAAGGGGTAA, with 0.9524 ± 0.0052.
For the sequence CCTTTCGACA, the switch fluorescence ratio came to 2.08 ± 0.26.
Then GCGCTTTTCT, with 0.9784 ± 0.0063; and CTGTTAGGTA, with 1.007 ± 0.01; and ATGACGAAAA, with 1.04 ± 0.058.
In the case of GGGTTTTCAT it was 0.993 ± 0.012.
Take AAAGGGTTAG: the switch fluorescence ratio stood at 1 ± 0.028.
As to GGGGATTTCA, the switch fluorescence ratio was 0.989 ± 0.024.
As for TGGCGGTGCT, the switch fluorescence ratio was found to be 0.997 ± 0.028.
Then ATGAGTTGCG, with 0.977 ± 0.029; and ACCGCTTTTT, with 1.11 ± 0.024; and CTTTATTTAG, with 0.997 ± 0.023.
Then CCTTGGGGGA, with 1.14 ± 0.055; and AGGTCGGATG, with 1.004 ± 0.0056.
CAGAGTGGCA: the switch fluorescence ratio amounted to 1.02 ± 0.027.
In the case of ATAGTACTTT, the switch fluorescence ratio amounted to 1.05 ± 0.044.
As to GAAGTATGTG, the switch fluorescence ratio worked out at 1.006 ± 0.0092.
As to TGGGGAGGAA, the switch fluorescence ratio was determined as 1 ± 0.011.
In the case of CGGGGTTCGG it was 0.996 ± 0.023.
In the case of TCAAGCTTTT, the switch fluorescence ratio amounted to 1.01 ± 0.017.
In the case of TCATGCATGT it was 1.035 ± 0.01; in that of GCCTGAAGGG, 1 ± 0.014; in that of CCATCATAGA, 0.9887 ± 0.0061.
On to AGGACGGGAT, for which the switch fluorescence ratio is 1.06 ± 0.056.
As for GTTGCATTAT, the switch fluorescence ratio is 1.028 ± 0.0041.
For AGAAAGGAGT, the switch fluorescence ratio is 0.9982 ± 0.0032.
In the case of GGGGCTAGGG it was 1 ± 0.032.
As for AAGTTACTGT, the switch fluorescence ratio is 1.126 ± 0.006.
Take GATGGCCGCG: the switch fluorescence ratio was determined as 1.03 ± 0.024.
In the case of TGTAGGGTTC, the switch fluorescence ratio came out at 1.12 ± 0.19.
For CTTGTTTAAC, the switch fluorescence ratio is 0.993 ± 0.035.
TGACGCCGAA: the switch fluorescence ratio was found to be 1.07 ± 0.019.
As to CATTGAGGTT, the switch fluorescence ratio amounted to 0.979 ± 0.02.
Consider GAGATTGTGG, for which the switch fluorescence ratio came out at 0.9652 ± 0.0048.
In the case of ATATGTGAGG it was 0.985 ± 0.0073; in that of TTGCACCGTT, 1.01 ± 0.038; in that of TATGAGCCTG, 0.968 ± 0.047.
Then CTCTCTAGCA, with 1.4 ± 0.015; and TGTTTCCGTG, with 0.9766 ± 0.0027.
In the case of TGATTTATAG it was 1.012 ± 0.009.
As to CCGACGGAGG, the switch fluorescence ratio is 1.99 ± 1.2.
Take CCACCGGGGC: the switch fluorescence ratio worked out at 2.3 ± 0.12.
Take TAAAAATCGT: the switch fluorescence ratio came to 0.997 ± 0.021.
Then GCTATAGTGT, with 0.992 ± 0.021; and GCGTTTTGTC, with 0.96229 ± 0.00085; and CGGGAAGCAC, with 1.53 ± 0.34.
In the case of ATTTTTAAAC it was 0.992 ± 0.066; in that of TTTTGAGACG, 1.09 ± 0.011; in that of CGTGAAAGTG, 0.991 ± 0.019.
In the case of ATGAATGTAT it was 0.9855 ± 0.0062.
Consider GCTATCGGGA, for which the switch fluorescence ratio was 1.01 ± 0.037.
For the sequence TTATTTGGA, the switch fluorescence ratio came to 0.98 ± 0.04.
In the case of TGCGTGGGGT it was 1.01 ± 0.022; in that of TGGGTGTATA, 1.01 ± 0.017; in that of TCAGCTCCGT, 1.08 ± 0.025.
In the case of TGGGTTATCT it was 0.972 ± 0.028; in that of TTTTTTCCGT, 1.07 ± 0.16.
In the case of TTTGGGGAGA it was 1 ± 0.041; in that of ATGGCACAAT, 1.02 ± 0.067.
As for TATGAGGTTG, the switch fluorescence ratio was determined as 1 ± 0.03.
With GAGGAAGGGA, the switch fluorescence ratio came out at 1.01 ± 0.017.
Consider TGATATCTTG, for which the switch fluorescence ratio was found to be 0.9862 ± 0.0028.
In the case of TACTTTAGAC it was 1.05 ± 0.011.
Turning to CATGCTAAGT, the switch fluorescence ratio is 0.997 ± 0.011.
In the case of CGAGTGGCGA it was 1.077 ± 0.0022; in that of GGGGCAGAAA, 1.26 ± 0.45.
In the case of TCTAGGAGGG, the switch fluorescence ratio turned out to be 0.998 ± 0.016.
On to ATGGCTTGTA, for which the switch fluorescence ratio was 0.999 ± 0.01.
With ATTTGCGGCT, the switch fluorescence ratio is 0.958 ± 0.062.
Regarding GGGATTGATC, the switch fluorescence ratio was 1.02 ± 0.021.
Consider CTATACGGTT, for which the switch fluorescence ratio was determined as 0.983 ± 0.03.
As for ATAGTTTTTG, the switch fluorescence ratio was 0.993 ± 0.012.
As to TTTTAGGGCC, the switch fluorescence ratio turned out to be 0.999 ± 0.05.
Take GACGAGGCAG: the switch fluorescence ratio is 2.27 ± 0.21.
CGTGACGGTT: the switch fluorescence ratio came to 1.03 ± 0.062.
For the sequence GTTGGCGGGA, the switch fluorescence ratio was 1.02 ± 0.042.
In the case of GCTGTAGGGG it was 1.02 ± 0.081.
Take GGGTTGGGCC: the switch fluorescence ratio came to 0.989 ± 0.014.
Regarding CGAAAAGTTT, the switch fluorescence ratio was determined as 0.994 ± 0.023.
For ACTGTGGGCA, the switch fluorescence ratio came out at 1.01 ± 0.02.
As to TGCATTTTTT, the switch fluorescence ratio was 0.981 ± 0.034.
In the case of AAAGGAACAG it was 1.03 ± 0.017; in that of CCAAGTGTGC, 1.26 ± 0.17.
Turning to ATCGGATTTC, the switch fluorescence ratio amounted to 1.02 ± 0.047.
In the case of TTTTGTGGTC, the switch fluorescence ratio amounted to 1.02 ± 0.017.
In the case of TTCCGGCTTT, the switch fluorescence ratio worked out at 1.01 ± 0.033.
Then TGTGTCAGCT, with 0.9981 ± 0.0041; and TAAGATGTCA, with 1.02 ± 0.034.
As to GGTAAGGGTT, the switch fluorescence ratio was 0.9866 ± 0.0081.
For the sequence TCGGCCAGAG, the switch fluorescence ratio is 1.01 ± 0.012.
Regarding GCCATTTATT, the switch fluorescence ratio was 0.977 ± 0.024.
In the case of TCTGGGGTTA it was 1 ± 0.018.
As for ATCATTGGGC, the switch fluorescence ratio was determined as 0.988 ± 0.025.
Turning to CGGTAGGGGG, the switch fluorescence ratio stood at 1.02 ± 0.049.
On to TCCTTCACCT, for which the switch fluorescence ratio stood at 1.24 ± 0.069.
As to TCGGACGGGC, the switch fluorescence ratio turned out to be 1.26 ± 0.18.
On to GTGGAGAGGG, for which the switch fluorescence ratio was 0.993 ± 0.038.
In the case of AAATTTACCG, the switch fluorescence ratio was 1.05 ± 0.015.
In the case of GGATGAGGTT it was 0.982 ± 0.044.
In the case of TACTTTCTGC it was 1.02 ± 0.066; in that of GGGTCGGGGT, 0.99 ± 0.029; in that of ATAGGGGTCG, 1.01 ± 0.076.
